Experiments:
[1] = biological target: core-bradavidin (Bradyrhizobium japonicum); test: ITC; core-bradavidin in the cell, ligand (Brad-tag or Brad-tag–EGFP) in the syringe, 15°C, 50 mM sodium phosphate pH 7.0, 100 mM NaCl; n is the stoichiometry per subunit
[2] = biological target: core-bradavidin (Bradyrhizobium japonicum); test: ITC; core-bradavidin in the cell, Brad-tag–EGFP in the syringe, 25°C, 50 mM sodium phosphate pH 7.0, 100 mM NaCl; n is the stoichiometry per subunit
[3] = biological target: Brad-tag–EGFP–His-tag fusion protein (Bradyrhizobium japonicum); test: BLI; Octet RED384; Brad-tag–EGFP–His-tag (0.03 mg/ml, 700 s) held on anti-Penta-HIS biosensors; higher concentrations: core-bradavidin 0.5, wt bradavidin 1.2, avidin 1.8, streptavidin 1.7, rhizavidin 2.0 mg/ml for 200 s; controls with biotin (3.2 mM for core-bradavidin, 13 mM for avidin) and plain sensors; 30°C

Substance	Kd [1]	dH [1]	stoichiometry N [1]	Kd [2]	dH [2]	stoichiometry N [2]	shift (BLI response) [3]
Brad-tag–EGFP fusion protein (without His-tag)	2800 nM	-0.5 kcal mol^–1	0.68	3100 nM	-1 kcal mol^–1	0.68	
core-bradavidin (domain or fragment)							1.2 nm

Reference: PMC3344845, “Structure of Bradavidin – C-Terminal Residues Act as Intrinsic Ligands” (PLoS ONE, 2012)
